Assay results published in patent US20190389914A1 (University of California, published 2019).
Where a chain is given by its changes, count along the chain named. In names and notes the source's numbering stands.

How the values were obtained:
[1] = molecular target: GAL4 activation domain fusion to HAB1 (pACT-HAB1), wild type (Arabidopsis thaliana (Mouse-ear cress)) (UniProt Q9CAJ0); experiment: Y2H, mandipropamid (FIG. 6)
[2] = molecular target: GAL4 activation domain fusion to HAB1^!-3 (pACT-HAB1^!-3; D204A in HAB1^!-2) (Arabidopsis thaliana (Mouse-ear cress)) (UniProt Q9CAJ0); experiment: Y2H, mandipropamid (FIG. 5)
[3] = molecular target: GAL4 activation domain fusion to HAB1^V393R (Arabidopsis thaliana (Mouse-ear cress)) (UniProt Q9CAJ0); experiment: Y2H, ABA, beta-gal staining (FIG. 1)
[4] = molecular target: T1, GAL4 activation domain fusion to HAB1^V393R (Arabidopsis thaliana (Mouse-ear cress), UniProt Q9CAJ0 4-511); experiment: Y2H, mandipropamid (FIG. 3)
T1 construct: Mutant of the pACT-HAB1 template, which lacks the three N-terminal amino acids of HAB1; Denoted HAB1^!
T1 sequence: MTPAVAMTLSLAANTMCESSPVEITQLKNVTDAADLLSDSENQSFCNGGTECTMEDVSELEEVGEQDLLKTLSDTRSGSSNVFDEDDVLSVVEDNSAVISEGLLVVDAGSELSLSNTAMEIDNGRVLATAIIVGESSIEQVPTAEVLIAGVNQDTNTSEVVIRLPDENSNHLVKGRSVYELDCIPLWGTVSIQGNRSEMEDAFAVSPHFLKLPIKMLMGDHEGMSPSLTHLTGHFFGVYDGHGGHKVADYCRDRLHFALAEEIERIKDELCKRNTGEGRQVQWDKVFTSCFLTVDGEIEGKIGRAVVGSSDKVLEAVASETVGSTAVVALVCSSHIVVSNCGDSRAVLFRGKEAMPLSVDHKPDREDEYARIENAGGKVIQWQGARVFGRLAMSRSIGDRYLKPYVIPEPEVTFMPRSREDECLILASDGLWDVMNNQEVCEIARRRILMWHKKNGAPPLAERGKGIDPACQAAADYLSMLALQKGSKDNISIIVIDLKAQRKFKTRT

[5] = molecular target: T2, GAL4 activation domain fusion to HAB1^!-2 (pACT-HAB1^!-2; HAB1^V393R/R505A) (Arabidopsis thaliana (Mouse-ear cress), UniProt Q9CAJ0 4-511); experiment: Y2H, mandipropamid (FIG. 3)
T2 construct: R505A introduced into the pACT clone carrying V393R; the pACT-HAB1 template lacks the three N-terminal amino acids of HAB1; also called HAB^!-2
T2 sequence: T1 sequence with R502A

[6] = molecular target: T3, 6x-His-PYR1 (recombinant wild type, E. coli) (Arabidopsis, UniProt O49686 1-191); experiment: pull-down on His-tag resin, SDS-PAGE (FIG. 8)
T3 construct: Previously constructed (Park et al., 2009); also called 6×-His-PYR1; wild type PYR1; not shown: 6x-His tag
T3 sequence: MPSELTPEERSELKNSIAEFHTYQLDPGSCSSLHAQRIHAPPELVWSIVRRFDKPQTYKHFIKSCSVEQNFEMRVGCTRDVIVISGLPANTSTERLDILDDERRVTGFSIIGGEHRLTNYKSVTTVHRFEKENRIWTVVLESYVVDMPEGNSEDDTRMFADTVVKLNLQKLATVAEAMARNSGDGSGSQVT

“GAL4 DNA binding domain fusion to PYR1*^-MANDI (PYR1^Y58H;K59R;V81I;F108A;S122G;M158I;F159V;A160V;T162D) (from UniProt P04386 1-147) (receptor)” showed a fold less sensitivity to mandipropamid than the orthogonal interaction [1] of 10 fold and a fold less sensitive to mandipropamid relative to HAB1^!-2 [2] of 10 fold.

“GAL4 DNA binding domain fusion to PYR1^T162D (from UniProt P04386 1-147) (receptor)” gave a fold less sensitive to ABA than wild type pBD-PYR1/pACT-HAB1 control cells [3] of 4 fold.

B1: GAL4 DNA binding domain fusion to PYR1^!-MANDI (PYR1^Y58H;K59R;V81I;F108A;S122G;F159L;T162D) (receptor, not shown: small tags and cut ends)
chain: T3 sequence with Y58H, K59R, V81I, F108A, S122G, F159L, T162D
notes: Septuple mutant; also called pBD-PYR1^!-MANDI
In the case of B1, the “fold less sensitive to mandipropamid than the PYR1^MANDI/HAB1 interaction” value [4] is reported as about 100 fold and the “fold less sensitive to mandipropamid than the PYR1^MANDI/HAB1 interaction” value [5] is reported as about 100 fold.

B2: GST-HAB1* (recombinant, E. coli) (enzyme)
chain: T1 sequence with R196A, D201A, S319D, R502A
notes: Cloned into pGEX-4T-1; not shown: glutathione S-transferase (GST) of pGEX-4T-1
B2: no binding [6].
